Assay results: US20260209362A1 (VIB VZW, published 2026)
Residue numbers refer to the chain shown, from its start. Each block holds one binder with its values, some of them ahead of it.

Key:
[1] = target: T1, biotinylated recombinant mouse IL-12Rβ2 (mouse, UniProt P97378 24-637, random biotinylated); assay: ELISA, P.E., biotinylated antigen
T1 construct: Recombinant protein produced in-house; also called mIL-12RB2; mouse IL-12RB2
T1 sequence: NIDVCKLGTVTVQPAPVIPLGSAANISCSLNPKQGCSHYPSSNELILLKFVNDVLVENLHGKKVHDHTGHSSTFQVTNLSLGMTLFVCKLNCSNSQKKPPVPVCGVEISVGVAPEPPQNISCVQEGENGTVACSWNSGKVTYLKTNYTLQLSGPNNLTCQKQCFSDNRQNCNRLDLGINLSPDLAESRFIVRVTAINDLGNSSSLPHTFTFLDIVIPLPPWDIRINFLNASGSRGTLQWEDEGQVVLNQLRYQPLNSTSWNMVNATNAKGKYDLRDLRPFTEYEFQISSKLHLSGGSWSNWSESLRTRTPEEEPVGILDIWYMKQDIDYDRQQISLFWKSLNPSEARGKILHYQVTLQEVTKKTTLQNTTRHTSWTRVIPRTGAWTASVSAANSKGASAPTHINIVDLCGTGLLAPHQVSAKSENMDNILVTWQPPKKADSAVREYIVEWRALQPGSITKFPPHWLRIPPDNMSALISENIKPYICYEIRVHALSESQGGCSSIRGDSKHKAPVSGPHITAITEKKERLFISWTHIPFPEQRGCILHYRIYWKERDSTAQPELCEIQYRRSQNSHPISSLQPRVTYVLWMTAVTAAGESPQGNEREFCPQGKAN

[2] = target: T2, biotinylated recombinant human IL-12Rβ2 (human, UniProt Q99665 24-622, random biotinylated); assay: ELISA, P.E., biotinylated antigen
T2 construct: Recombinant protein produced in-house; also called hIL-12RB2; human IL-12RB2
T2 sequence: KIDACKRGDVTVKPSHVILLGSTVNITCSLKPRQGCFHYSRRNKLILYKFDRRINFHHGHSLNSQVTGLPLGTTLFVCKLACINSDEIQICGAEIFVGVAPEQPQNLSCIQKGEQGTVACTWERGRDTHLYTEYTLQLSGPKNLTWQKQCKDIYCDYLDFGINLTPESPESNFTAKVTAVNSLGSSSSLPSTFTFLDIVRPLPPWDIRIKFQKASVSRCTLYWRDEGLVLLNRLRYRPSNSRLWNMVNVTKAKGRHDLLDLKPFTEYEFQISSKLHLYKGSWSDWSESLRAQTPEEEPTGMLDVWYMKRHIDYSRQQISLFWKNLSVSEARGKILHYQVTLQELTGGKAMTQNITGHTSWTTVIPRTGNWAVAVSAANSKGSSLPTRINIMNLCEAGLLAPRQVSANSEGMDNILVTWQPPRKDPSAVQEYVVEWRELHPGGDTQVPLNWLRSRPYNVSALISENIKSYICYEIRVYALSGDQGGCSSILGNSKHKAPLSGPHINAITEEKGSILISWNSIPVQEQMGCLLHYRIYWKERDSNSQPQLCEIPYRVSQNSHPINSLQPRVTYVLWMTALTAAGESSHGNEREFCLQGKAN

[3] = target: T2, biotinylated recombinant human IL-12Rβ2; assay: BLI, P.E., off-rate ranking

B1: anti-IL-12Rβ2 VHH clone 3CRH25 (clone ID 20378) (VHH, not shown: small tags and cut ends)
VHH: QVQLQESGGGLVQAGDSLRLSCTASGHTFSRYTTIGWFRQAPGKDREFVAAIRWSGDITDYADAVKGRFTISRDNVKNTVYLQMNSLNPEDTAVYYCARGYSEYGVLSRNRGLYAYWGQGTQVTVSS
notes: periplasmic extract
- ELISA mIL-12RB2/control [1]: 1.04
- ELISA hIL-12RB2/control [2]: 5.16
- Response [3]: 0.523
- koff [3]: 0.00205 s⁻¹

B4: anti-IL-12Rβ2 VHH clone 3CRHS31 (clone ID 20418) (VHH, not shown: small tags and cut ends)
VHH: QVQLQESGGGLVQAGGSLRLSCAASGFTFSTYAMSWVRQAPGKGLEWVSSVNSGGLSTDYADSVEGRFTISRDDAKNMLFLQMNSLKPEDTARYYCAKYEDCSDYVCDRAGYWGQGTQVTVSS
notes: periplasmic extract
- ELISA mIL-12RB2/control [1]: 1.16
- ELISA hIL-12RB2/control [2]: 10.9
- Response [3]: 0.234
- koff [3]: 0.00429 s⁻¹

B6: anti-IL-12Rβ2 VHH clone 2CRH41 (clone ID 20365) (VHH, not shown: small tags and cut ends)
VHH: QVQLQESGGGLVQPGGSLRLSCTASGFAFSSYWMYWVRQSPEKGFEWVSVVDTDGGITYYADSVKGRFTISRDNAKNTLYLQMNSLKPQDTALYYCARDRTTLEYTRTYYRTGQGTQVTVSS
notes: periplasmic extract
- ELISA mIL-12RB2/control [1]: 1.64
- ELISA hIL-12RB2/control [2]: 3.8
- Response [3]: 0.493
- koff [3]: 0.00496 s⁻¹

B8: anti-IL-12Rβ2 VHH clone 3CAH32 (clone ID 20357) (VHH, not shown: small tags and cut ends)
VHH: QVQLQESGGGLVQPGGSLRLSCAASGSILRINLMGWYRQVPGKQRELVAEMSTGGSTTYVDSVKGRFTISRDNAKNTVYLQMNSLKPEDTAVYYCNAKAWQLGRLENDDWGQGTQVTVSS
notes: periplasmic extract
- ELISA mIL-12RB2/control [1]: 0.842
- ELISA hIL-12RB2/control [2]: 4.31
- Response [3]: 0.607
- koff [3]: 0.00419 s⁻¹

B9: anti-IL-12Rβ2 VHH clone 3CAHS102 (clone ID 20399) (VHH, not shown: small tags and cut ends)
VHH: B8 VHH with K64E
notes: periplasmic extract
- ELISA mIL-12RB2/control [1]: 1.02
- ELISA hIL-12RB2/control [2]: 3.54
- Response [3]: 0.323
- koff [3]: 0.00267 s⁻¹

B10: anti-IL-12Rβ2 VHH clone 3CAHS79 (clone ID 20398) (VHH, not shown: small tags and cut ends)
VHH: QVQLQESGGGLVQPGGSLRLTCVASGFPFSTHAMSWVRQPPGKGREWISAINSGGDSTDYADSVMGRFTISRDNAKNTVYLQMNSLKSEDTAVYYCAKYEDCSDYDCSSRASWGQGTQVTVSS
notes: periplasmic extract
- ELISA mIL-12RB2/control [1]: 1.04
- ELISA hIL-12RB2/control [2]: 3.71
- Response [3]: 0.268
- koff [3]: 0.00434 s⁻¹

B11: anti-IL-12Rβ2 VHH clone 3CAHS171 (clone ID 20407) (VHH, not shown: small tags and cut ends)
VHH: B10 VHH with V93A
notes: periplasmic extract
- ELISA mIL-12RB2/control [1]: 0.961
- ELISA hIL-12RB2/control [2]: 3.27
- Response [3]: 0.195
- koff [3]: 0.00431 s⁻¹

Continued, values first:

- ELISA mIL-12RB2/control [1]: 1.02
- ELISA hIL-12RB2/control [2]: 6.37
- Response [3]: 0.551
- koff [3]: 0.00426 s⁻¹
B2: anti-IL-12Rβ2 VHH clone 3CRHS77 (clone ID 20425) (VHH, not shown: small tags and cut ends)
VHH: B1 VHH with D16G, R31S, D45E, R53G, D74H, K77E
notes: periplasmic extract

- ELISA mIL-12RB2/control [1]: 1.41
- ELISA hIL-12RB2/control [2]: 4.94
- Response [3]: 0.726
- koff [3]: 0.00428 s⁻¹
B3: anti-IL-12Rβ2 VHH clone 3CRH64 (clone ID 20386) (VHH, not shown: small tags and cut ends)
VHH: B1 VHH with D16G, M84T
notes: periplasmic extract

- ELISA mIL-12RB2/control [1]: 0.946
- ELISA hIL-12RB2/control [2]: 12
- Response [3]: 0.327
- koff [3]: 0.0043 s⁻¹
B5: anti-IL-12Rβ2 VHH clone 3CRHS51 (clone ID 20421) (VHH, not shown: small tags and cut ends)
VHH: B4 VHH with A14P, S50A, S85R
notes: periplasmic extract

- ELISA mIL-12RB2/control [1]: 0.927
- ELISA hIL-12RB2/control [2]: 3.58
- Response [3]: 0.339
- koff [3]: 0.00302 s⁻¹
B7: anti-IL-12Rβ2 VHH clone 3CRHS163 (clone ID 20438) (VHH, not shown: small tags and cut ends)
VHH: B6 VHH with S31T, V37I, D52N, D54G, G56D, Q89E, L103M, E104S, T112G
notes: periplasmic extract

- ELISA mIL-12RB2/control [1]: 0.975
- ELISA hIL-12RB2/control [2]: 3.64
- Response [3]: 0.4
- koff [3]: 0.00428 s⁻¹
B12: anti-IL-12Rβ2 VHH clone 3CRH28 (clone ID 20380) (VHH, not shown: small tags and cut ends)
VHH: QVQLQESGGGLVQPGGSLTLSCAASGFTFSSNAMSWVRQAPGKGLEWVSSISSGGGTTYYTDSVKGRFTTARDNAKNTLYLRMNSLKPEDTAVYYCSKSSTGSGSRGQGTQVTVSS
notes: periplasmic extract
